Target: IL-12Rβ1/IL-12Rβ2 receptor complex (human, UniProt P42701)
Assay: cell-based or functional assay

IFN-γ secretion by NK92MI cells (ELISA, 48 hrs): ~70 fold lower
B1: P36693671 (other)
chain 1: QVQLVQSGAEVKKPGASVKVSCKASGYTFTMNIIHWVRQAPGQGLEWMGWIHPGSGAIKYAQKLQGRVTMTTDTSTSTAYMELRSLRSDDTAVYYCARHGGTGRGAMDYWGQGTLVTVSSASTKGPSVFPLAPSSKSTSGGTAALGCLVKDYFPEPVTVSWNSGALTSGVHTFPAVLQSSGLYSLSSVVTVPSSSLGTQTYICNVNHKPSNTKVDKKVEPKSCDKGGGGSSGRSDNRGGGGSIWELKKDVYVVELDWYPDAPGEMVVLTCDTPEEDGITWTLDQSSEVLGSGKTLTIQVKEFGDAGQYTCHKGGEVLSHSLLLLHKKEDGIWSTDILKDQKEPKNKTFLRCEAKNYSGRFTCWWLTTISTDLTFSVKSSRGSSDPQGVTCGAATLSAERVRGDNKEYEYSVECQEDSAAPAAEESLPIEVMVDAVHKLKYENYTSSFFIRDIIKPDPPKNLQLKPLKNSRQVEVSWEYPDTWSTPHSYFSLTFSVQVQGQDQDEKKDRVFTDKTSATVICRKNASISVRAQDRYYSSSWSEWASVPCS
chain 2: EIVLTQSPGTLSLSPGERATLSCRASQSVSTSAYSYMHWYQQKPGQAPRLLIYLASNLESGIPDRFSGSGSGTDFTLTISRLEPEDFAVYYCQQSRELPYTFGQGTKLEIKRTVAAPSVFIFPPSDEQLKSGTASVVCLLNNFYPREAKVQWKVDNALQSGNSQESVTEQDSKDSTYSLSSTLTLSKADYEKHKVYACEVTHQGLSSPVTKSFNRGECGGGGSPLGLAGRNLPVATPDPGMFPCLHHSQNLLRAVSNMLQKARQTLEFYPCTSEEIDHEDITKDKTSTVEACLPLELTKNESSLNSRETSFITNGSCLASRKTSFMMALCLSSIYEDLKMYQVEFKTMNAKLLMDPKRQIFLDQNMLAVIDELMQALNFNSETVPQKSSLEEPDFYKTKIKLCILLHAFRIRAVTIDRVMSYLNAS

— patent publication US20230399371A1, “IL-12 COMPOSITIONS AND METHODS OF USE THEREOF” (published 2023)
